This note sets out measurements from patent US9758785B2, “miR-520 microRNAs sensitize cancers to platinum-based therapy” (BAYLOR COLLEGE OF MEDICINE, priority 2012, dated 2017).

Common to all, as to assay type: cell-based, human
The subject of data set [1] is ovarian cancer cell lines. The data set is described as follows: Cisplatin IC50 in multiple ovarian cancer cell lines. The settings on record: OVCAR8 and SKOV3ip1 cells, p<0.001. As to the method:
Established ovarian cancer cell lines were obtained from the ATCC (OVCAR8, OVCAR5) and the University of Texas M.D. Anderson Cancer Center (HEYA8, SKOV3ip1). All cell lines were maintained at 37° C. in RPMI 1640 media (Invitrogen, Carlsbad, Calif.) supplemented with 10% fetal bovine serums (Hyclone, Logan, Utah) and 1% penicillin/streptomycin (Gibco, Carlsbad, Calif.). MicroRNA mimics and mimic controls (Dharmacon, Lafayette, Colo.) were transiently transfected into actively growing cultures using Lipofectamine 2000 (Invitrogen, Carlsbad, Calif.). After a 24-hour incubation, transfected cultures were washed, passaged and seeded into 96 well plates. Proliferation and apoptosis were measured at 72, 96 and 120 hours after transfection using standard assays (Cell Titer 96 Aqueous One; Caspase Glo 3/7; Promega, Madison, Wis.). pLemiR expression vectors (Open Biosystems/Thermo, Huntsville, Ala.) were prepared according to manufacturer's instructions and transfected into cells using Fugene 6 (Roche, Indianapolis, Ind.). Following transfection, stable clones were selected using puromycin (Invitrogen) at doses optimized for each line. […] Viability was assessed across a clinically relevant range of cisplatin concentrations using an MTS assay (Promega). […]

Data set [2] deals with phopho-CHK2 (T68). As to the kind of experiment: Western blot of phospho-CHK2 in OVCAR8 cells. To be noted: OVCAR8 with cisplatin. On the procedure: Whole cell lysates equivalent to 30 μg of protein were resolved on 4-12% gradient SDS-PAGE. Resolved proteins were transferred onto PVDF membranes using the iBlot system (Invitrogen). Rabbit polyclonal and/or mouse monoclonal antibodies specifically recognizing ATM, phospo-ATM (Ser1981) CHK1 phospho-CHK1 (Ser216), p21, phospo-CHK2 ([…]), BCL2, XIAP, CDC25A were obtained from Cell Signaling Technologies (Danvers, Mass.). A rabbit polyclonal antibody recognizing FANCD2 was also purchased from Abcam (Cambridge, Mass.). Protein expression was visualized using species-specific, horseradish peroxidase-conjugated secondary antibody (Cell Signaling) and ECL Plus chemiluminescent substrate (Amersham, Buckinghamshire, UK).

Data set [3] relates to lin28A/B. The data set is described as follows: Stemness gene expression in media that induce spheroid formation. To be noted: OVCAR8 and SKOV3ip1.

B1: hsa-mir-520h MI0003175 (nucleic acid, listed as Homo sapiens)
chain: UCCCAUGCUGUGACCCUCUAGAGGAAGCACUUUCUGUUUGUUGUCUGAGAAAAAACAAAGUGCUUCCCUUUAGAGUUACUGUUUGGGA
modifications: expressed or natural sequence
notes: synthetic mimic or stably expressed from pLemiR vector; written miR-520g/h interchangeably
For the molecule B1, the “Reduction of IC50 for cisplatin” value in data set [1] was at most 4 fold. Moreover, the “phospho-CHK2 (T68) level” value in data set [2] is “increased levels”. Further, the “Spheroid-media-induced expression of stemness genes (lin28A/B)” value in data set [3] is recorded as “eliminates increased expression”.
